Assay [1] addresses bovine TGF-β RII extracellular domain fused to the human IgG1 Fc domain (bovine).
The target in assay [2] is bovine TGF-β RI extracellular domain fused to the human IgG1 Fc domain (bovine) (UniProt O46680).
The target in assay [3] is bovine TGF-β RII extracellular domain fused to the human IgG1 Fc domain (bovine). Kind of assay: ELISA; competition: TGF-β coated at 400 ng/mL; increasing concentrations of FhTLM incubated with the Receptor-Fc fusion in solution at 37°C for 1 hr, then added to the plate. Background: ELISA stands for enzyme-linked immunosorbent assay.
The target in assay [4] is bovine TGF-β RI extracellular domain fused to the human IgG1 Fc domain (bovine) (UniProt O46680). Described as above.
Assay [5] has as its target bovine TGF-β RII extracellular domain fused to the human IgG1 Fc domain (bovine). Kind of assay: ELISA; competition: FhTLM coated at 400 ng/mL; increasing concentrations of TGF-β incubated with the Receptor-Fc fusion in solution at 37°C for 1 hr, then added to the plate.
Assay [6] concerns the target bovine TGF-β RI extracellular domain fused to the human IgG1 Fc domain (bovine) (UniProt O46680). The assay is described as above.

bovine TGF-β RI extracellular domain fused to the human IgG1 Fc domain (bovine), sequence (O46680 30-122): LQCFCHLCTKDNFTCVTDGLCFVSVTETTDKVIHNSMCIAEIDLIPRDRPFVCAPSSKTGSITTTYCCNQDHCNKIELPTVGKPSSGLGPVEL

Take “F. hepatica TGF-like molecule, FhTLM (recombinant) (ligand)”: the percent of primary bovine PBMCs positive for pSmad2/3 co-localised with the nucleus, 3 to 4 hrs with FhTLM in assay [1] and in assay [2] was 15.8 % of cells each time. The substance also gave a percent reduction of the binding of TGF-β RII-Fc to immobilised TGF-β1 in assay [3] of 46%. The percent reduction of the binding of TGF-β RI-Fc to immobilised TGF-β1 in assay [4] worked out at 42%.
The substance human TGF-β1 (ligand) returned a percent reduction of the binding of TGF-β RII-Fc to immobilised FhTLM in assay [5] of 50%. In assay [6], this substance registered a percent reduction of the binding of TGF-β RI-Fc (printed as TGF-β RII-Fc a second time) to immobilised FhTLM of 22%.

(Values after publication PMC5091765.)
